In publication PMC11851098 (Nucleic Acids Research, 2025):

Key:
SAXS = molecular target: the molecule itself; test: SAXS
Suv3 helicase = molecular target: T1, Suv3 helicase (UniProt Q8IYB8 23-786, Alexa 647 label (site not stated) in the MST assay); test: MST
T1 sequence (looked up): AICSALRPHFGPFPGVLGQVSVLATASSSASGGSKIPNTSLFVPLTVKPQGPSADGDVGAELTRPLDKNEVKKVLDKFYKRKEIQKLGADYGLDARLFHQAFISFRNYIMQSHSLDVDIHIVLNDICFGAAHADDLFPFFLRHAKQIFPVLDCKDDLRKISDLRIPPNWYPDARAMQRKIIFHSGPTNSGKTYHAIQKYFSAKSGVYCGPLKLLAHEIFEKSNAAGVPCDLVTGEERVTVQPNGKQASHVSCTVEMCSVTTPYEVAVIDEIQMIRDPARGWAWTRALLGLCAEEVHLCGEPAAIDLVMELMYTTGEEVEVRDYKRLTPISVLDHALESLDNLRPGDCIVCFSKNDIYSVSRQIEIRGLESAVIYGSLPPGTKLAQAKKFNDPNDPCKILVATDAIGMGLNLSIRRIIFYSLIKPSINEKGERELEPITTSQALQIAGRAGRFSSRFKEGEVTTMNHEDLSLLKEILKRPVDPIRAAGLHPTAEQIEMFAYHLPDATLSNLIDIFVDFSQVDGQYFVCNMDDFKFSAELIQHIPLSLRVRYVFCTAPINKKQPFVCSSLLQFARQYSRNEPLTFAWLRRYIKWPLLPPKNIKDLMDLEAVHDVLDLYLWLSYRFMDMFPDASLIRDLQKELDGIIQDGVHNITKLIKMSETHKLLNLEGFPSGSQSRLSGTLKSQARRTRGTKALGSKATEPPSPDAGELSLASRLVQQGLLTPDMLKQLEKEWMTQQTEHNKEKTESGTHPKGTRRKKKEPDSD

B1: hPNPase P467S mutant, residues 46-783 (enzyme, human, UniProt Q8TCS8 46-783, looked up)
chain: AVAVDLGNRKLEISSGKLARFADGSAVVQSGDTAVMVTAVSKTKPSPSQFMPLVVDYRQKAAAAGRIPTNYLRREIGTSDKEILTSRIIDRSIRPLFPAGYFYDTQVLCNLLAVDGVNEPDVLAINGASVALSLSDIPWNGPVGAVRIGIIDGEYVVNPTRKEMSSSTLNLVVAGAPKSQIVMLEASAENILQQDFCHAIKVGVKYTQQIIQGIQQLVKETGVTKRTPQKLFTPSPEIVKYTHKLAMERLYAVFTDYEHDKVSRDEAVNKIRLDTEEQLKEKFPEADPYEIIESFNVVAKEVFRSIVLNEYKRCDGRDLTSLRNVSCEVDMFKTLHGSALFQRGQTQVLCTVTFDSLESGIKSDQVITAINGIKDKNFMLHYEFPPYATNEIGKVTGLNRRELGHGALAEKALYPVIPRDFSFTIRVTSEVLESNGSSSMASACGGSLALMDSGVPISSAVAGVAIGLVTKTDPEKGEIEDYRLLTDILGIEDYNGDMDFKIAGTNKGITALQADIKLPGIPIKIVMEAIQQASVAKKEILQIMNKTISKPRASRKENGPVVETVQVPLSKRAKFVGPGGYNLKKLQAETGVTISQVDEETFSVFAPTPSAMHEARDFITEICKDDQEQQLEFGAVYTATITEIRDTGVMVKLYPNMTAVLLHNTQLDQRKIKHPTALGLEVGQEIQVKYFGRDPADGRMRLSRKVLQSPATTVVRTLNDRSSIVMGEPISQSSSNSQ
SAXS
  stoichiometry N: 3
Suv3 helicase
  Kd: 386 ± 64 nM
